Entries after “also recorded” stand apart in the source; their conditions may differ.
How the values were obtained:
[1] = cited from earlier work
[2] = test system: vestibular ganglion neurons (VGNs); assay: VGN survival in dissociated cell culture, serum-free medium, 2 days; assay type: cell-based, rat; settings: for survival-promoting effect on VGNs: 10 ng/ml added at plating
Procedure: (§1) The effects of trkB or trkC agonists to enhance neuronal survival was determined using VGNs in cell culture. VGN cell culture was prepared as follows. Vestibular ganglia were dissected from postnatal day 5 (P5) Wistar rats and were incubated in a mixture of 0.125% trypsin and 0.125% collagenase for 25 min at 37° C. The enzyme was inactivated with a mixture of 0.005% soybean trypsin inhibitor (Sigma) and 0.005% DNase (Worthington) before trituration with 0.05% DNase in Eagle's Basal Medium (“BME”). After the undissociated tissues were separated by filtering with a Nylon meshwork (33 μm in pore size), the dissociated cells were preplated on a 35 mm untreated tissue culture dish for 25 min to enrich the neuronal population. Under these experimental procedures, about 3-5% of the cell population were vestibular ganglion neurons (VGNs) as determined by immunocytochemistry with a monoclonal antibody (N52; Boehringer) against neurofilament (200 kd). The cell suspension was finally plated on polylysine (500 μg/ml)laminin (20 μg/ml) coated 16-well LabTek slides in 200 μl of serum-free medium (BME plus serum-free supplement (Sigma I-1884), 1% BSA, 2 mM glutamine, and 5 mg/ml glucose) containing no antibiotics. Cells were plated at a density of 100,000/well.
All human recombinant neurotrophins (obtained from Genentech, Inc.) were added to the cultures at the time of plating.
(§2) Cell counts and data analysis were performed as follows. After 2 days in culture, viable VGNs were identified by labeling with the neurofilament monoclonal antibody N52 and counted using a grid ocular reticule covering an area of 1 mm^2 under a Zeiss Axiophot microscope. For each culture, about 10 randomly selected fields were counted. In these experiments, cell counts were performed in the same way for control cultures. Data were collected from triplet cultures for each of the experimental groups. Data were then normalized as a percentage of the viable VGNs in the control cultures in each of the experiments.
The effect of neurotrophins on cell survival was determined on VGNs which were dissociated from postnatal day 5 (P5) rat vestibular ganglia and plated in defined serum-free medium. Neurofilament protein immunocytochemistry using bright field microscopy was performed in the VGN cultures in serum-free medium in the absence or presence of 10 ng/ml of NT-4/5. In control cultures in serum-free medium without neurotrophins, about 35% of VGNs survived after 2 days. […] The survival-promoting effects of NT-4/5 on cultured VGNs were dose-dependent (FIG. 1).

trkC receptor = trkC receptor (Homo sapiens, UniProt Q16288); settings: cited from earlier work; for trkC binding of NT-3 mutants: relative to NT-3
trkB receptor = trkB receptor (Homo sapiens, UniProt Q16620); settings: naturally occurring NGF versus BDNF; cited from earlier work
[3] = test system: vestibular ganglion neurons (VGNs); assay: Protection of cultured VGNs from cisplatin neurotoxicity; assay type: cell-based, rat; settings: for protective effect against cisplatin neurotoxicity: 1, 2 or 4 μg/ml cisplatin, 10 ng/ml factor, 2 days
Procedure: as §1, §2
(§3) The ability of trkB or trkC agonists to protect neurons from ototoxicity was determined using VGNs in cell culture. […] All human recombinant neurotrophins (Genentech, Inc.) were added to the cultures at the time of plating. To block the effects of the neurotrophins, 1 μg/ml of trkB-IgG or trkC-IgG (kindly provided by Dr. Dave Shelton), specific antagonists for NT-4/5 (and BDNF) or NT-3, respectively (Shelton et al., 1995), was added to some of the experimental cultures at the same time when neurotrophins were added. […] In other experiments, epidermal growth factor (EGF), basic fibroblast growth factor (βFGF) and insulin-like growth factor-1 (IGF-1) were added to the culture at the time of plating at a concentration of 10 ng/ml. […] In these experiments, cell counts were performed in the same way for control cultures.

[4] = test system: vestibular ganglion neurons (VGNs); assay: Protection of cultured VGNs against gentamicin neurotoxicity; assay type: cell-based, rat; settings: FIG. 5; for protective effect against gentamicin neurotoxicity: 1, 2 or 3 mg/ml gentamicin, 10 ng/ml factor, 2 days
Procedure: as §1, §2, §3

[5] = test system: vestibular ganglion neurons (VGNs); assay: Ototoxin-induced cell death of VGNs in culture; assay type: cell-based, rat
Procedure: The ability of trkB or trkC agonists to protect neurons from ototoxicity was determined using VGNs in cell culture. […] All human recombinant neurotrophins (Genentech, Inc.) were added to the cultures at the time of plating. […]

hair cells = settings: Warchol et al., 1993, Lefebvre et al.; cited from earlier work
[6] = test system: vestibular ganglion neurons (VGNs); assay: Blocking of neurotrophin survival-promoting effects by trkB-IgG / trkC-IgG in VGN culture; assay type: cell-based, rat; settings: for effect on VGN cultures by themselves (without neurotrophin): 1 μg/ml, alone; for effect of trkB-IgG and trkC-IgG together on the effects of NT-4/5 and NT-3: both fusion proteins together
Procedure: as §1, §2
TrkB-IgG and trkC-IgG have been previously reported to be specific antagonists for NT-4/5 (or BDNF) and NT-3, respectively (Shelton et al., 1995). To confirm that the survival-promoting effects of NT-4/5, BDNF and NT-3 were specific, trkB-IgG or trkC-IgG fusion protein was added to the culture along with NT-4/5, BDNF or NT-3. All human recombinant neurotrophins (Genentech, Inc.) were added to the cultures at the time of plating. To block the effects of the neurotrophins, 1 μg/ml of trkB-IgG or trkC-IgG (kindly provided by Dr. Dave Shelton), specific antagonists for NT-4/5 (and BDNF) or NT-3, respectively (Shelton et al., 1995), was added to some of the experimental cultures at the same time when neurotrophins were added.

[7] = culture containing cisplatin, FIG. 4

Chain of trkC receptor (Q16288 32-839): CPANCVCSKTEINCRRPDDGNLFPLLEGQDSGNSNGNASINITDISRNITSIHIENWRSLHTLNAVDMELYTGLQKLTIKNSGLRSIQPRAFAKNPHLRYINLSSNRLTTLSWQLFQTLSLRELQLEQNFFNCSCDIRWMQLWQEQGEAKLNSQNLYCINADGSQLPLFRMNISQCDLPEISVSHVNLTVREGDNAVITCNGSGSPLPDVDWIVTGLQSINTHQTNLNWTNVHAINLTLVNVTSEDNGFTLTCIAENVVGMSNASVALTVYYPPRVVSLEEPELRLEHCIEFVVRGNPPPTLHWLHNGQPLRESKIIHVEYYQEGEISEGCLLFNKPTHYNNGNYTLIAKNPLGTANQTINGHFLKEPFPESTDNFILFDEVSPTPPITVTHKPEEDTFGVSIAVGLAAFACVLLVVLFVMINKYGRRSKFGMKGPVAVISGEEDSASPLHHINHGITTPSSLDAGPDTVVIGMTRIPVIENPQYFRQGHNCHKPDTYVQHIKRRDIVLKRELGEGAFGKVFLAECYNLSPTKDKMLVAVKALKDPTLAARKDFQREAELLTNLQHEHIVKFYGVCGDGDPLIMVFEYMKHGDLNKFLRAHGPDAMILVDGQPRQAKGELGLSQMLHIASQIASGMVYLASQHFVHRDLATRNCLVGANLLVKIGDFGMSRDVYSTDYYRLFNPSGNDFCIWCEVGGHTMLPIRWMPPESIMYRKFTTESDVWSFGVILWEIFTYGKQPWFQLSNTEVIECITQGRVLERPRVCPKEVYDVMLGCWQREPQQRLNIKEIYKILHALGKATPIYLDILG
Chain of trkB receptor (Q16620 32-822): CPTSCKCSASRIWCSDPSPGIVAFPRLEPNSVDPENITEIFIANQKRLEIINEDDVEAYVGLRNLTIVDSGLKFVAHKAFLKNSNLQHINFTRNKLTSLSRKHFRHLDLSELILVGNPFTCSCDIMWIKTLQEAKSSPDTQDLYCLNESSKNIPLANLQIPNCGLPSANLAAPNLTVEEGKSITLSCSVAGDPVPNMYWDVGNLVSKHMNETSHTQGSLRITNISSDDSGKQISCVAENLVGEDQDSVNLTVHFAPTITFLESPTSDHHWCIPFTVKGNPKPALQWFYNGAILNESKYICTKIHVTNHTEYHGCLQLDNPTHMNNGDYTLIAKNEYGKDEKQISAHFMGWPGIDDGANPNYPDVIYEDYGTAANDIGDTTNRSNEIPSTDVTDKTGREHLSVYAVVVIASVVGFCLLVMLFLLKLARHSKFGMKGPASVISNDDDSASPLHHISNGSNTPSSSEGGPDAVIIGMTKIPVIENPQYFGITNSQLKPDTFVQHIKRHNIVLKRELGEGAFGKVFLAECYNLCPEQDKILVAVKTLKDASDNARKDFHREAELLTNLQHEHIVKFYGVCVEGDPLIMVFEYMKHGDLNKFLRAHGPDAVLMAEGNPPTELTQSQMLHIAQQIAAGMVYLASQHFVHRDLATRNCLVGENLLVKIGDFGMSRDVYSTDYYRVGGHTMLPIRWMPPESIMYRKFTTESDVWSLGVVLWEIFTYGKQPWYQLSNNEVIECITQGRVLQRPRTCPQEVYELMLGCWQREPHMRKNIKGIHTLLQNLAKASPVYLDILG

For `[H]/N=C(/N)N[C@H]1[C@H](O)[C@@H](O)[C@H](O[C@@H]2O[C@@H](C)[C@](O)(C=O)[C@H]2O[C@@H]2O[C@@H](CO)[C@H](O)[C@@H](O)[C@@H]2NC)[C@@H](N/C(N)=N\[H])[C@@H]1O` [streptomycin], the “incidence of vestibular impairment” value ([1]; 1 gram per day) is given as 25% and the “patients displaying some vestibular impairment” value ([1]; 2 grams daily for 60 to 120 days) is given as about 75%.

For EGF: epidermal growth factor, the “survival-promoting effect on VGNs” value ([2]; 2 days, FIG. 2) was “not affected; also recorded: did not produce significant effects”.

For IGF-1: insulin-like growth factor-1, the “survival-promoting effect on VGNs” value ([2]; 2 days, FIG. 2) was “not affected; also recorded: did not produce significant effects”.

For “NGF: human recombinant nerve growth factor, ligand of trkA”, the “KD at trkC relative to NT-3 (fold lower)” value (trkC receptor; naturally occurring NGF versus NT-3) is given as 500-1000 fold, the “KD at trkB relative to BDNF (fold lower)” value (trkB receptor) is given as 500-1000 fold and the “protective effect against cisplatin neurotoxicity” value ([3]; FIG. 4) is given as “no protective effects”. The “protective effect against gentamicin neurotoxicity” value [4] was “showed no effect” and the “survival-promoting effect on VGNs” value ([2]; 2 days, FIG. 2) was “did not show any detectable effect; also recorded: did not produce significant effects”.

For “R31A: NT-3 mutant with mutation at position R31 to alanine”, the “trkC binding of NT-3 mutants” value (trkC receptor) is given as “increased trkC binding”.

With gentamicin the VGN death ([5]; 3 mgiml of gentamicin) was “a majority of VGNs died”, the “inhibition of VGN survival by the ototoxin” value ([5]; added at plating at various concentrations, FIGS. 4 and 5) was “dose-dependent inhibition of VGN survival” and the “concentrations at which induced VGN cell death was observed” value ([5]; present experiments) was 1000 to 3000 µg/mL. The “concentrations needed to destroy hair cells” value (hair cells) was 500 to 1000 µg/mL.

In the case of “trkB-IgG: trkB-IgG fusion protein, specific antagonist for NT-4/5 and BDNF (Shelton et al., 1995)”, the “inhibition of the survival-promoting effect of BDNF” value ([6]; 1 μg/ml antagonist, 10 ng/ml BDNF, FIG. 3) is reported as “completely abolished; also recorded: inhibit”, the “inhibition of the survival-promoting effect of NT-4/5” value ([6]; 1 μg/ml antagonist, 10 ng/ml NT-4/5, FIG. 3) is reported as “completely abolished; also recorded: inhibit” and the “effect on VGN cultures by themselves (without neurotrophin)” value [6] is reported as “did not show detectable effects”. The “effect of trkB-IgG and trkC-IgG together on the effects of NT-4/5 and NT-3” value [6] was “blocked”.

With “trkC-IgG: trkC-IgG fusion protein, specific antagonist for NT-3 (Shelton et al., 1995)” the “inhibition of the survival-promoting effect of NT-3” value ([6]; 1 μg/ml antagonist, 10 ng/ml NT-3, FIG. 3) was “inhibited the activity of NT-3; also recorded: inhibit”, the “effect on VGN cultures by themselves (without neurotrophin)” value [6] was “did not show detectable effects” and the “effect of trkB-IgG and trkC-IgG together on the effects of NT-4/5 and NT-3” value [6] was “blocked”.

For βFGF: basic fibroblast growth factor, the “survival-promoting effect on VGNs” value ([2]; 2 days, FIG. 2) was “not affected; also recorded: did not produce significant effects”.

B1: E92A: NT-3 mutant with mutation at position E92 to alanine (protein, UniProt P20783 139-257, looked up, variant E92A)
Neurotrophin-3: YAEHKSHRGEYSVCDSESLWVTDKSSAIDIRGHQVTVLGEIKTGNSPVKQYFYETRCKEARPVKNGCRGIDDKHWNSQCKTSQTYVRALTSANNKLVGWRWIRIDTSCVCALSRKIGRT
In the case of B1, the “trkC binding of NT-3 mutants” value (trkC receptor) is given as “increased trkC binding”.

B2: NT-3: human recombinant neurotrophin-3, ligand of trkC (protein)
chain: YAEHKSHRGEYSVCDSESLWVTDKSSAIDIRGHQVTVLGEIKTGNSPVKQYFYETRCKEARPVKNGCRGIDDKHWNSQCKTSQTYVRALTSENNKLVGWRWIRIDTSCVSALSRKIGRT
For B2, the “protective effect against cisplatin neurotoxicity” value ([3]; FIG. 4) was “Significant protective, but less potent effects; also recorded: very significant protecting effects at all three doses”, the “protective effect against gentamicin neurotoxicity” value [4] was “significantly protective effect; also recorded: very significant protective effects at all three doses of gentamicin” and the “survival-promoting effect on VGNs” value ([2]; 2 days, FIG. 2) was “significant effect (p<0.01) but was less potent than NT-4/5 and BDNF; also recorded: very significant survival promoting effects”.

B3: NT-4/5: human recombinant neurotrophin-4/5 (Genentech, Inc.), ligand of trkB (protein)
chain: GVSETAPASRRGELAVCDAVSGWVTDRRTAVDLRGREVEVLGEVPAAGGSPLRQYFFETRCKADNAEEGGPGAGGGGCRGVDRRHWVSECKAKQSYVRALTAHAQGRVGWRWIRIDTACVCTLLSRTGRA
For B3, the “number of surviving VGNs relative to cisplatin alone and to control” value ([3]; 1 μg/ml or 2 μg/ml cisplatin, 10 ng/ml neurotrophin) was “higher than the control culture without cisplatin”, the VGN survival ([3]; 4 μg/ml cisplatin, 10 ng/ml neurotrophin, FIG. 4) was “about 60 % of the survival levels of control cultures in the absence of cisplatin” and the “protective effect against cisplatin neurotoxicity” value ([3]; FIG. 4) was “significantly ameliorated the toxic effects of cisplatin; also recorded: very significant protecting effects at all three doses”. For the same molecule, the “additive effect, NT-4/5 combined with BDNF, cisplatin culture” value [3, 7] was “no additive effects were observed”, the “additive effect, NT-4/5 combined with NT-3, cisplatin culture” value [3, 7] was “no additive effects were observed” and the “protective effect against gentamicin neurotoxicity” value [4] was “very significant protective effects at all three doses of gentamicin”. The “additive effect, NT-4/5 combined with BDNF, gentamicin culture” value ([4]; culture containing gentamicin) was “no additive effects were observed”, the “additive effect, NT-4/5 combined with NT-3, gentamicin culture” value ([4]; culture containing gentamicin) was “no additive effects were observed” and the “survival-promoting effect on VGNs” value ([2]; 2 days, FIG. 2) was “very significant survival promoting effects”. The “additive/synergistic effect on VGN survival, NT-4/5 combined with BDNF” value ([2]; 10 ng/ml, FIG. 2) was “no synergistic effects were observed”, the “additive/synergistic effect on VGN survival, NT-4/5 combined with NT-3” value ([2]; 10 ng/ml, FIG. 2) was “no synergistic effects were observed” and the “survival-promoting effect on VGNs over the dose range” value ([2]; NT-4/5 at different concentrations, 2 days, FIG. 1) was “dose-dependent; also recorded: very significant survival-promoting effects”. The “concentration of maximal survival-promoting effect” value ([2]; doses from 0.1 to 50 ng/ml examined, FIG. 1) was 10 ng/mL.

B4: BDNF: human recombinant brain-derived neurotrophic factor, ligand of trkB (protein)
chain: HSDPARRGELSVCDSISEWVTAADKKTAVDMSGGTVTVLEKVPVSKGQLKQYFYETKCNPMGYTKEGCRGIDKRHWNSQCRTTQSYVRALTMDSKKRIGWRFIRIDTSCVTLTIKRGR
With B4 the “protective effect against cisplatin neurotoxicity” value ([3]; FIG. 4) was “equivalent effectiveness; also recorded: very significant protecting effects at all three doses”, the “protective effect against gentamicin neurotoxicity” value [4] was “an effect equivalent to NT-4/5; also recorded: very significant protective effects at all three doses of gentamicin” and the “survival-promoting effect on VGNs” value ([2]; 2 days, FIG. 2) was “equivalent to NT-4/5; also recorded: very significant survival promoting effects”. The “increase in the number of surviving VGNs” value ([2]; P5 rat VGNs, 2 days in serum-free medium, versus control culture without neurotrophin) was 2 fold.

Source: patent publication US6974798B2, “Treatment of balance impairments” (Genentech, Inc., priority 1995, dated 2005)
